Measured values published in patent EP4669352A1.
Read-outs that look alike come from different tables or passages of the source.

B1: MV49 (antibody, V domains shown)
VH: QVQLQESGGGLVQPGGSLRLSCAASGFTFSNSWMNWVRQAPGKGPEWVARIKRKADGETADYAASVKGRFAVSRDDSKNTLYLQINSLKSEDTAVYYCTTVPPLYDLFYRGAYYFDSWGQGVLITVSS
VL: QPVLTQPPSVSGSPGQSVTISCTGTSSDIGGYKYVSWYQQHPGTAPKLMIYEVNKRPSGVSDRFSGSKSGNTASLTISGLQAEDEADYYCSAYSTSRTYIFGPGTRVTVL
B2: MV33 (antibody, V domains shown)
VH: EAQLVESGGGLVHPGGSLRLSCEVSGFTFSNSWMNWVRQAPGKGLECVARIIRNADGETADYAASVRGRFTISRDDPENTLYLRMKSLKTEDTAVYYCTTVPPLSHLFFHETYYFDYWGQGVLVTVSS
VL: QAARTQSPSMSASPGQSVTISCTGTRNDIGGYNYVSWYQQYPGKAPKLMIYDVSKRPSGVSDRFSGSKSGNTASLTISGLQAEDEANYYCSSYAGSNTYVFGSGTKLTIL

Legend:
[1] = target: D8 protein (vaccinia virus)
[2] = target: D8 protein (vaccinia virus); remark: listed apart in the source
[3] = target: D8 protein (vaccinia virus); assay: BLI (Octet)

Binder | Kd [1] [nM] | koff [2] [s⁻¹] | Kd [3] [nM]
B1 | 0.011 | – | –
B2 | – | < 1e-07 | < 0.001
